Test results as given in patent US20040229366A1.

Target: AP1 expressed in planta (35S::AP1 transgene, or ectopically activated in the tfl mutant) (Arabidopsis thaliana) (UniProt P35631)
Experiment: cell-based or functional assay

Chain of AP1 expressed in planta (35S::AP1 transgene, or ectopically activated in the tfl mutant) (Arabidopsis thaliana) (P35631 whole entry, change not shown): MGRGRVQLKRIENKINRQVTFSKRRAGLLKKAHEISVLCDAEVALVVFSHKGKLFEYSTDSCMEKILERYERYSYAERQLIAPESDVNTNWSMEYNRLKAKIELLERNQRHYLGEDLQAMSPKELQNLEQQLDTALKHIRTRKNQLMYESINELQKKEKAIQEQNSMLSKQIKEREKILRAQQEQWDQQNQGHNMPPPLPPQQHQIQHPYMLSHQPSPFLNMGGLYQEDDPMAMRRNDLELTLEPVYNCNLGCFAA

rosette leaves formed before flowering, tfl mutation in combination with the 35S::SEP3 transgene (rosette leaves): 2 | rosette leaves produced before flowering, 35S::AP1 35S::SEP3 doubly transgenic plants (rosette leaves): 2
Substance: SEP3 expressed from the 35S::SEP3 transgene in Arabidopsis (from UniProt O22456 1-251)
